This note sets out measurements from patent US20070009547A1 (INSTITUT PASTEUR, published 2007).

The assay addresses T1, CFP-10 carrying an N-terminal HIS tag, produced by BCG::2F9-HIS-EsxB (Mycobacterium tuberculosis, UniProt P9WNK5 2-100).
T1 sequence: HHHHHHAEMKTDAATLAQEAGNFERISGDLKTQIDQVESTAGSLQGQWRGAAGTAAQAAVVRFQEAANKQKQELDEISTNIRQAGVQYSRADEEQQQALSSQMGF
The assay is described as follows: Ni-NTA co-purification, Coomassie gel and western blot. (In general: Immunoblotting shows a protein as a band on a membrane.)

B1: 6 kDa early secreted antigenic target (ESAT-6), native, encoded by esxA (other)
chain: TEQQWNFAGIEAAASAIQGNVTSIHSLLDEGKQSLTKLAAAWGGSGSEAYQGVQQKWDATATELNNALQNLARTISEAGQAMASTEGNVTGMFA
On to B1, for which the binding result was “binds”.
